The values below come from the supplement of paper PMC9112550, “Optimization of the antimicrobial peptide Bac7 by deep mutational scanning” (BMC Biology, 2022).

This data set concerns Escherichia coli TOP10. Nature of the data set: shrunken log2 fold change of peptide-encoding DNA abundance (4.5 h post-induction vs induction); higher = less antimicrobial activity (less host growth inhibition). The conditions noted are these: time post-induction: 4.5 h; library: site-saturation at positions 5, 18, 19, 20.
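Further: peptides expressed intracellularly from a pBAD plasmid library in pooled LB shake-flask culture, induced with 0.3% L-arabinose, DNA abundance read by NGS, three biological replicates, DESeq2 with apeglm shrinkage.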

In the case of RRIRWRPPRLPRPRPRPEYNPRP, the “shrunken log2 fold change” value came to 0.195.

RRIRIRPPRLPRPRPRPGCTPRP: the “shrunken log2 fold change” value is -0.268.

In the case of RRIRSRPPRLPRPRPRPGSEPRP, the “shrunken log2 fold change” value is 0.593.

As for RRIRHRPPRLPRPRPRPSQRPRP, the “shrunken log2 fold change” value is -0.102.

For RRIRPRPPRLPRPRPRPAHSPRP, the “shrunken log2 fold change” value is -0.00917.

Turning to RRIRNRPPRLPRPRPRPDQFPRP, the “shrunken log2 fold change” value is -0.0466.

With RRIRNRPPRLPRPRPRPRQRPRP, the “shrunken log2 fold change” value stood at 0.215.

Take RRIRMRPPRLPRPRPRPPPNPRP: the “shrunken log2 fold change” value amounted to 1.77.

For the sequence RRIRGRPPRLPRPRPRPIDYPRP, the “shrunken log2 fold change” value was -0.0822.

RRIRVRPPRLPRPRPRPYDPPRP: the “shrunken log2 fold change” value was -0.468.

Consider RRIRGRPPRLPRPRPRPAWPPRP, for which the “shrunken log2 fold change” value was determined as 0.892.

In the case of RRIRDRPPRLPRPRPRPSSNPRP, the “shrunken log2 fold change” value is -0.148.

Consider RRIRVRPPRLPRPRPRPGKVPRP, for which the “shrunken log2 fold change” value is -0.272.

As to RRIRSRPPRLPRPRPRPIAEPRP, the “shrunken log2 fold change” value is -0.0272.

Regarding RRIRKRPPRLPRPRPRPMWAPRP, the “shrunken log2 fold change” value is 0.184.

Turning to RRIRNRPPRLPRPRPRPIAGPRP, the “shrunken log2 fold change” value is -0.0235.

On to RRIRERPPRLPRPRPRPRKFPRP, for which the “shrunken log2 fold change” value amounted to 0.173.

Consider RRIRMRPPRLPRPRPRPVVWPRP, for which the “shrunken log2 fold change” value came out at 1.57.

As for RRIRRRPPRLPRPRPRPWSIPRP, the “shrunken log2 fold change” value came to 0.0651.

On to RRIRQRPPRLPRPRPRPSLWPRP, for which the “shrunken log2 fold change” value came to 0.337.

As to RRIRWRPPRLPRPRPRPHDWPRP, the “shrunken log2 fold change” value turned out to be 0.15.

As for RRIRDRPPRLPRPRPRPWYSPRP, the “shrunken log2 fold change” value was -0.0808.

On to RRIRERPPRLPRPRPRPVTWPRP, for which the “shrunken log2 fold change” value was -0.165.

Consider RRIRCRPPRLPRPRPRPYWLPRP, for which the “shrunken log2 fold change” value was -0.669.

Consider RRIRTRPPRLPRPRPRPYFQPRP, for which the “shrunken log2 fold change” value was -0.587.

Regarding RRIRCRPPRLPRPRPRPIYDPRP, the “shrunken log2 fold change” value was -0.867.

In the case of RRIRCRPPRLPRPRPRPKVFPRP, the “shrunken log2 fold change” value turned out to be 0.0792.

Regarding RRIRMRPPRLPRPRPRPSVYPRP, the “shrunken log2 fold change” value is -0.335.

RRIRHRPPRLPRPRPRPPAMPRP: the “shrunken log2 fold change” value was found to be 0.0064.

For the sequence RRIRVRPPRLPRPRPRPGHTPRP, the “shrunken log2 fold change” value is -0.000319.

As to RRIRLRPPRLPRPRPRPIANPRP, the “shrunken log2 fold change” value was -0.00904.

Take RRIRIRPPRLPRPRPRPFFYPRP: the “shrunken log2 fold change” value is -0.416.

For the sequence RRIRERPPRLPRPRPRPDNDPRP, the “shrunken log2 fold change” value is -0.259.

As to RRIRMRPPRLPRPRPRPPQTPRP, the “shrunken log2 fold change” value turned out to be 0.424.

Turning to RRIRHRPPRLPRPRPRPENRPRP, the “shrunken log2 fold change” value is 0.019.

As to RRIRCRPPRLPRPRPRPNDDPRP, the “shrunken log2 fold change” value was -0.161.

For RRIRDRPPRLPRPRPRPNITPRP, the “shrunken log2 fold change” value was -0.289.

For the sequence RRIRWRPPRLPRPRPRPLPVPRP, the “shrunken log2 fold change” value was -0.0992.

On to RRIRERPPRLPRPRPRPDRYPRP, for which the “shrunken log2 fold change” value was -0.00433.

Take RRIRFRPPRLPRPRPRPRPDPRP: the “shrunken log2 fold change” value came out at 0.282.

In the case of RRIRWRPPRLPRPRPRPSSKPRP, the “shrunken log2 fold change” value is -0.369.

In the case of RRIRERPPRLPRPRPRPKDVPRP, the “shrunken log2 fold change” value was -0.152.

Regarding RRIRDRPPRLPRPRPRPHLEPRP, the “shrunken log2 fold change” value was -0.169.

As for RRIRWRPPRLPRPRPRPRHAPRP, the “shrunken log2 fold change” value was 0.0251.

Take RRIRCRPPRLPRPRPRPMGFPRP: the “shrunken log2 fold change” value was -0.103.

Take RRIRDRPPRLPRPRPRPSESPRP: the “shrunken log2 fold change” value is -0.000946.

On to RRIRPRPPRLPRPRPRPTTTPRP, for which the “shrunken log2 fold change” value is 0.142.

With RRIRFRPPRLPRPRPRPYFIPRP, the “shrunken log2 fold change” value is -1.12.

Consider RRIRWRPPRLPRPRPRPPRDPRP, for which the “shrunken log2 fold change” value worked out at 0.661.

Regarding RRIRNRPPRLPRPRPRPDERPRP, the “shrunken log2 fold change” value is 0.0408.

As for RRIRDRPPRLPRPRPRPERAPRP, the “shrunken log2 fold change” value was 0.0972.

Consider RRIRDRPPRLPRPRPRPKVGPRP, for which the “shrunken log2 fold change” value was -0.017.

On to RRIRVRPPRLPRPRPRPLSCPRP, for which the “shrunken log2 fold change” value is -0.307.

In the case of RRIRTRPPRLPRPRPRPLEKPRP, the “shrunken log2 fold change” value amounted to 0.419.

As for RRIRERPPRLPRPRPRPHHMPRP, the “shrunken log2 fold change” value was -0.381.

Regarding RRIRCRPPRLPRPRPRPMSEPRP, the “shrunken log2 fold change” value was -0.0508.

In the case of RRIRSRPPRLPRPRPRPTWKPRP, the “shrunken log2 fold change” value was 0.286.

With RRIRLRPPRLPRPRPRPTGIPRP, the “shrunken log2 fold change” value was -0.182.

As to RRIRCRPPRLPRPRPRPTYRPRP, the “shrunken log2 fold change” value turned out to be 0.0231.

Regarding RRIRDRPPRLPRPRPRPRCTPRP, the “shrunken log2 fold change” value is -0.054.

Consider RRIRLRPPRLPRPRPRPGWKPRP, for which the “shrunken log2 fold change” value is -0.0726.

RRIRFRPPRLPRPRPRPIPKPRP: the “shrunken log2 fold change” value is 0.179.

Turning to RRIRRRPPRLPRPRPRPPIQPRP, the “shrunken log2 fold change” value is 0.16.

Regarding RRIRPRPPRLPRPRPRPQRCPRP, the “shrunken log2 fold change” value is -0.0388.

In the case of RRIRVRPPRLPRPRPRPHCPPRP, the “shrunken log2 fold change” value is -0.173.

Consider RRIRTRPPRLPRPRPRPCVLPRP, for which the “shrunken log2 fold change” value was found to be 0.0134.

On to RRIRTRPPRLPRPRPRPWGYPRP, for which the “shrunken log2 fold change” value was -0.0354.

Turning to RRIRARPPRLPRPRPRPLRQPRP, the “shrunken log2 fold change” value is 0.736.

As for RRIRPRPPRLPRPRPRPTVGPRP, the “shrunken log2 fold change” value was 0.555.

In the case of RRIRPRPPRLPRPRPRPMMDPRP, the “shrunken log2 fold change” value was found to be 0.0321.

As for RRIRFRPPRLPRPRPRPLQGPRP, the “shrunken log2 fold change” value was 0.0475.

With RRIRRRPPRLPRPRPRPCQKPRP, the “shrunken log2 fold change” value was 0.0185.

Take RRIRSRPPRLPRPRPRPHTWPRP: the “shrunken log2 fold change” value is -0.0472.

Consider RRIRDRPPRLPRPRPRPQLRPRP, for which the “shrunken log2 fold change” value is -0.0942.

For RRIRCRPPRLPRPRPRPPMYPRP, the “shrunken log2 fold change” value is -0.156.

For the sequence RRIRIRPPRLPRPRPRPATNPRP, the “shrunken log2 fold change” value was -0.339.

Regarding RRIRLRPPRLPRPRPRPKQMPRP, the “shrunken log2 fold change” value turned out to be 0.0542.

With RRIRGRPPRLPRPRPRPWSQPRP, the “shrunken log2 fold change” value turned out to be 0.142.

On to RRIRNRPPRLPRPRPRPHAGPRP, for which the “shrunken log2 fold change” value is 0.00938.

Regarding RRIRQRPPRLPRPRPRPESDPRP, the “shrunken log2 fold change” value worked out at 0.319.

Take RRIRSRPPRLPRPRPRPFPRPRP: the “shrunken log2 fold change” value is 0.356.

Consider RRIRGRPPRLPRPRPRPKSWPRP, for which the “shrunken log2 fold change” value was determined as 0.925.

Consider RRIRIRPPRLPRPRPRPKEKPRP, for which the “shrunken log2 fold change” value is 0.00643.

Turning to RRIRKRPPRLPRPRPRPDEQPRP, the “shrunken log2 fold change” value worked out at 2.64.

With RRIRIRPPRLPRPRPRPQAIPRP, the “shrunken log2 fold change” value came out at 0.0305.

As to RRIRGRPPRLPRPRPRPHMKPRP, the “shrunken log2 fold change” value amounted to 0.103.

As for RRIRLRPPRLPRPRPRPKNGPRP, the “shrunken log2 fold change” value is -0.203.

For RRIRPRPPRLPRPRPRPGSSPRP, the “shrunken log2 fold change” value is -0.0653.

For the sequence RRIRTRPPRLPRPRPRPDNYPRP, the “shrunken log2 fold change” value is -0.0497.

With RRIRIRPPRLPRPRPRPRAEPRP, the “shrunken log2 fold change” value was -0.202.

Consider RRIRDRPPRLPRPRPRPCGSPRP, for which the “shrunken log2 fold change” value is 0.0136.

Turning to RRIRKRPPRLPRPRPRPMQKPRP, the “shrunken log2 fold change” value is -0.00412.

Regarding RRIRLRPPRLPRPRPRPNNNPRP, the “shrunken log2 fold change” value was -0.673.

In the case of RRIRRRPPRLPRPRPRPHWIPRP, the “shrunken log2 fold change” value was 0.0716.

For the sequence RRIRERPPRLPRPRPRPERIPRP, the “shrunken log2 fold change” value was -0.0271.

For the sequence RRIRYRPPRLPRPRPRPYQLPRP, the “shrunken log2 fold change” value is -0.00146.

As to RRIRFRPPRLPRPRPRPVGQPRP, the “shrunken log2 fold change” value is -0.0211.

As to RRIRWRPPRLPRPRPRPHVSPRP, the “shrunken log2 fold change” value is -0.0109.

Consider RRIRQRPPRLPRPRPRPPDVPRP, for which the “shrunken log2 fold change” value is 0.124.

For RRIRQRPPRLPRPRPRPQEVPRP, the “shrunken log2 fold change” value is -0.171.

On to RRIRLRPPRLPRPRPRPEYMPRP, for which the “shrunken log2 fold change” value was -0.741.

As to RRIRNRPPRLPRPRPRPLWIPRP, the “shrunken log2 fold change” value is -0.286.

RRIRPRPPRLPRPRPRPDIEPRP: the “shrunken log2 fold change” value was -0.215.

As for RRIRYRPPRLPRPRPRPYISPRP, the “shrunken log2 fold change” value is -0.00213.

In the case of RRIRARPPRLPRPRPRPPENPRP, the “shrunken log2 fold change” value amounted to 0.576.

Take RRIRDRPPRLPRPRPRPENHPRP: the “shrunken log2 fold change” value is -0.0926.

RRIRERPPRLPRPRPRPQSLPRP: the “shrunken log2 fold change” value was -0.0684.

RRIRIRPPRLPRPRPRPPQKPRP: the “shrunken log2 fold change” value was 0.0534.

Turning to RRIRQRPPRLPRPRPRPWVDPRP, the “shrunken log2 fold change” value is 0.0234.

Turning to RRIRSRPPRLPRPRPRPSPEPRP, the “shrunken log2 fold change” value is 0.0709.

On to RRIRFRPPRLPRPRPRPLEGPRP, for which the “shrunken log2 fold change” value came to 0.0031.

For the sequence RRIRTRPPRLPRPRPRPIEEPRP, the “shrunken log2 fold change” value is 0.0678.

On to RRIRIRPPRLPRPRPRPLFPPRP, for which the “shrunken log2 fold change” value is -0.42.

For the sequence RRIRIRPPRLPRPRPRPNVPPRP, the “shrunken log2 fold change” value worked out at 0.0631.

For the sequence RRIRNRPPRLPRPRPRPSTKPRP, the “shrunken log2 fold change” value is -0.0203.

Turning to RRIRYRPPRLPRPRPRPTAIPRP, the “shrunken log2 fold change” value is -0.774.

Turning to RRIRKRPPRLPRPRPRPCGEPRP, the “shrunken log2 fold change” value came to 0.166.

For RRIRPRPPRLPRPRPRPLGRPRP, the “shrunken log2 fold change” value stood at 0.0841.

With RRIRGRPPRLPRPRPRPNGCPRP, the “shrunken log2 fold change” value came out at 0.12.

For RRIRNRPPRLPRPRPRPFPRPRP, the “shrunken log2 fold change” value came to 0.0857.

Consider RRIRNRPPRLPRPRPRPLGCPRP, for which the “shrunken log2 fold change” value was -0.27.

Regarding RRIRGRPPRLPRPRPRPEQKPRP, the “shrunken log2 fold change” value came out at 0.105.

With RRIRLRPPRLPRPRPRPACYPRP, the “shrunken log2 fold change” value is -0.202.

Turning to RRIRLRPPRLPRPRPRPSTKPRP, the “shrunken log2 fold change” value is -0.0833.

Regarding RRIRMRPPRLPRPRPRPFTQPRP, the “shrunken log2 fold change” value came to 0.215.
